Reference: the supplement of paper PMC12636428

Tested on: Saccharomyces cerevisiae
Test: transcriptional activation domain activity (GFP:mCherry ratio, weighted mean of sorted bins, harmonized to initial dataset scale) (arbitrary fluorescence ratio units); higher = stronger transcriptional activation
Settings: beta-estradiol 1 µM; induction time 4 h
In short: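 For this assay, yeast diploids with a GFP reporter carried barcoded protein tiles at URA3, each fused to an estradiol-inducible synthetic transcription factor. Induction was a 1:5 dilution into SC with 1 uM beta-estradiol for 4 hours at 30 °C, followed by sorting into 8 bins by GFP:mCherry ratio and barcode sequencing. Tiles under 50 reads were dropped, and activation activity was calculated as the read-weighted mean of bin median fluorescence, averaged across barcodes and linearly mapped onto the initial dataset scale.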

Row | Sequence | transcriptional activation domain activity
1 | GLKRLAMLLRRMLSEKDLIFVFKGLQFLKYWTLSAEEIHTHARYWRRAWKILS | 52400
2 | MPPPRKPHRKSRYGCIQCKRRHVKCDEEKPCRRCLDREEQCSLKPDVAAADIT | 17600
3 | AAAKPVATKSSSKAKTPAAASISKSKAKPVAAAARGGGKKRKVASSPAPSVVA | 9030
4 | RVHMLLCICLIATFVGVTVDLALEILFRLSQFSESPRFSPTGSRTLILTLPLF | 45300
5 | FWNLFNLVPGIQAQNLHCRYDYYPWGLSAFCQFLPIANAIGLTGSYTGIIYCC | 33900
6 | EVDEAAVKMVKRARRERRAAEKEASGEAEHAAGVEKKPKRRSSRKKKEEGEGG | 31400
7 | TSSSEESSNKGQRQLTVSIDSAAHHDNSTIPLDFMPRDALHGFDWSEEDDMSD | 39300
8 | AGKKTVTSEEAEVKVEVEAEVGVEVDIEPAAAKKPAKKTKAKVKTIAEEEVKV | 31900
9 | EEPKAEEAKAEEAAKEEPKAEESKAEEPKAEEPKAEEPKAEEEPKAEEAAKEE | 7200
10 | KAEAEAEAQPIAAAKTPRTRKAAAKPKAAAPSPTPAIPKTQAPTASAPAAPLP | 18300
11 | KKAKAGDEDEEGGADKASPKKGAKRGRKQVEDEDEDESEEVQPKAKRAKKAVV | 24800
12 | MASGILGLLVVNFVLLLICFIAYSSQIFVIWPWYGRTVSVELISLLLPFNILV | 42800
13 | KSVLERILVRGAMGSERHMKHELKVFYAMRGKLSWFIKWVHVVLRWVFAKSVL | 48000
14 | NGHIYPLSLNLFCFFSPMHAILYCFSISWDDYLSLAVLHSGLTIQMVLLVWHF | 50000
15 | KAQDDKEADDSPKKKPAKRSRKKAAADDGDDDEEEAQPAKKKAKGGRKSKAAA | 39400
16 | MRTLLMCHANRGIGFFWSGVFLWKVNILAGNGGYSSMCAYVNWLRLTWFSFVA | 40900
17 | LNPDYIVGLSSLILVMCYIYKACYVSLLLSMHPLILLCMLCSSFTFIAIIVMI | 47700
18 | QAATGVGILLLLHDFKRVSIVILAQDGCDDEGWPNQLVAFAALLRSRLLKGGE | 22100
19 | NLLQHIIPPFFINHHHHYYSPFHTSYTFFFSTFVYALFFYIIMYLSIFISLLL | 62200
20 | ESFKPAPAPKKEEAPKEEAKPAEEGAKAEEAPKEGENKEEAKPAEEPKRRSAS | 28400
21 | MVLLTFSLICNSCATVLELSEHLPVPWDVFCQHMCVRFLLPLLRVAAHALTSA | 43000

Row | Sequence | transcriptional activation domain activity
22 | MDLYFMDLFIVILWCGFIVYLVYFLFFYYESGLVYLYIINSMGLCCESGVLFV | 67500
23 | EGGEGGSGSGSGGNAKTRRKGRRRGSSRDGAGAGAGAGAGEGAGGEVGRSKKK | 7430
24 | FDNSGFQRLESLCACLAAIKSWMDIFLKFPPLEYAHLSFTFWAQLMKCIVVLY | 61900
25 | ASENSESSDSSDDEADVPSRKGNAASAVNTMADDDDDEEGGGGATTAAAARTK | 16900
26 | HLINEDKYQSFSIKQWLPLVYNMLFYIKEKEELVLRINSSFTLRRFVEMAAKE | 50700
27 | MKFVFVPFAVSPPKPFFLLLFLLLFFTSTFCAFSISPFSLFCSSLFYCSRFLL | 52400
28 | EIAVEEPAQPMDVDGAVEAETDATTSKQDKKDKKKKKKASKESKVEAEPEAAA | 48700
29 | NANADSNIAGNPKNNDATIDNELTQILNEYNMNFNDNLGTSTSGKNKSACPSS | 54200
30 | MYSIGVLTWKHDIGFFEDLLWSWCRVCFERYYTNVSPCTKLLSMELLLNCLLG | 69100
31 | CVGLLCLLDTLHLCFSIHMMYFYLIHNFGNVKAVFDIIWSLKGLGTVQVLLIW | 45200
32 | RSSSKKKDASDDEDKHSRRKSSSRKKGSDEEDDKSRHSRSASASKKKDKKSYD | 14300
33 | EKKEKSSRKSTSRAAANGTAEKASKGEASSKKSRGASRPRSPKKTRSPAGRPA | 24500
34 | MMLLLMLMILMMILTMMMLLLLHKQENEGCVLFLFLLWWLWLWFWLWCCWKSS | 35300
35 | KSKSSRSSRRREGEEDDDRRRRRHRHRSRSRSRSRGRGGGSDDGSKEQRRSSR | 40100
36 | MSDLETPKRRRPGVRPRASQACRACAAAKVRCDNLQSCHRCQNKRVACVRGSH | 34100
37 | RYLKCGGHVKHFFDLSRRADLSLEWLRRYPMEAVITDQIVSWLCHICLRQMRV | 46000
38 | LRWVRSNWRSNLTSLSELHMWWNYPWSLYAVFQTTITQWAFLLDCLLFACFYF | 33700
39 | KAGGTGAKQEKEPQGEGRETEGNQAKANRRTKGGTARGEGAAGGRRRRKGEES | 35000
40 | MFCLRSWIPVLFFLLRTNASPVYLVLFLSATYFLNRPCVYCSLLLFILVVALF | 46500
41 | VFRLYFYLLYFIFYRNLFARLRNWEQYTLIQVASSVWVIIFYPLRMTRTTHGL | 65900
42 | FLDCLKYILHNSHHLLVTVCDSFERTVRGLNKLKKMNVRQKDIYIGYYLLQYG | 46200

Row | Sequence | transcriptional activation domain activity
43 | KAGKKKYVESVNGRRREVLVIVGKDGKTKRKTRWLDPESAATETGVPWGLEVP | 28800
44 | DSFDAPIQTLGDDQRACLKPGLWFAYKVRFCVTLKQYKVLWMCLVLLRHLRIK | 48000
45 | PLLLKGLQFTMAEEKTWSLLRQIMLLDNLPLIDPAPTRFMYLLLGAIPRLLNG | 49700
46 | ESSSSTGAEEKKKKKKSSKDKKRKAEDEDDATDGAEEKKSKKVKASEDEPARK | 14100
47 | MYCVSFSHFYPPPLSFFHYGFDIFLFIFLIFFFCCPFLFAQVVVGYAICWYHT | 51300
48 | ALYSLKGRELGWLCLTICTFDGKSWMEFGAFSRRGLFTYNYGLLQPNTKRIAV | 35700
49 | SFILLFFYSFILLFFYSFILLFFWFFFCLWILIFSLFYSTIIITIKKRKAHTY | 59300
50 | EVAANHRTILDHTMSLVSAVHIACLRFMTVAWAQAYRRYIVAWIRDLQVLHPH | 70400
51 | IVLYLRCFWLSVMFYTYSLFFIKMTFLLNYYRLLLVSKMRSVCIAAIVIIVLW | 72100
52 | KIMSFIIGLGLICPLVLVRDKLTILLTLCYEGLLVGFWFIDHAQALRWYCLFI | 68700
53 | YDILKCVLPCIVQLLPRNSPLVHCIRAYQCYRIMIGLQCMTERRLKHLQELIK | 44800
54 | MLSLKSFLPLQASLLFAAVGPISLFSLSDDVVRHIFCLKLQIFYLRFLLKWEH | 43700
55 | MAKTRLIETIHTAFCIEFIYQYLIIGYGNPLVLAQIHWSVVCLLACTLLIVFL | 55500
56 | KKSVLQLLAWLMHYKLYPTRNYKAICNCLPKLFENPLWAEFCSKMADTMVKYN | 46300
57 | GDFNDKTLKENCRVDSQQDCYDLAQLQILESDFWKTIAFSKPFYAVDENSSIF | 102000
58 | MSEPPRKRAKLACVTCNARRVKCDVTERQPCGNCVAGKILCETRESKRGKHPR | 33800
59 | GGLCAANFVAILITASVNIWTLLGNVYYSPLVNRCVCVARPEWMWTIWIFPLL | 46700
60 | ESDEPEQQRAKSQSRRRQSRGRGRKGGSESEAERSDVSASGGGRRNRQRQKKQ | 9900
61 | IHCLDSLFLLYMLTIFYLLWYSSLIFPLWCMISLYYFIVLSSTSLLGLSFISL | 71500
62 | MFFLLVLAAVISGYKAVLKHFLVVISLFLHMIYLVPPLCLWKPILVASILSSP | 44700
63 | MPPHSEIDDIFAAKHSEPAPPPPPQKKKSKKRKRDAAAATVAPAAAPPPAAPA | 46500

Row | Sequence | transcriptional activation domain activity
64 | MIRTLFLFFLFIIIFFFFFFFCFLLFFVFLFLFIFLIVVFTIRKSMNLGFVCV | 42400
65 | SFNDTSFLNMEDPIRNEFSFDNGDRAVTDLPRSAHFLSDTGLEGINFSGLNDS | 55200
66 | DVEMLKGLALRNPLEEGEDEAASLSQYAVNRQILLTYVILKLKLIRGKCILFV | 35000
67 | KKGTIMTIASPSTVRRNMYDWLPSLFYFMPNSILGMWFDMTLPKLFFFLFLSQ | 63400
68 | GASTPVTTGGKRKSDGGAGGSAKKERKTPAAKKDKEEKAPRGKANGAKATAAS | 22000
69 | GWAFGTKNEDGFQLFDCTGEALGVILRLSHILRHVTTFWRLRTAVDLLLQAQC | 58900
70 | RVVSAFGWKADKHLGFALLKLCLEDRRIRSPMASLMLLAYYTVLTSLCPQVLA | 60900
71 | INSTIHNLLEVVLLPDLCGFCCFSMRFVVLLDLIGTLTLPVSAVYLVYLIYVI | 59000
72 | LFYLLLLYYYYYCTILYILLHIHYIYIIYLFFLFVYSIYLFFFYILLFIIYYS | 52300
73 | FPCFFISLFPCLLSLSISLFPCLVISLSFFLISLFPFLFLFFPFLSFSLFPYF | 68500
74 | DEDAEGEDDPESAEPAKKRGRPPGSGKKRKPAAEKPKPQPGRGRGRPKKSEAA | 18000
75 | VNKSGSTYGEELSPKLDSSLVNDTTSLLLPQQPVFVSENVGSEFSSLNEFLSM | 108000
76 | MLFIYEVFPSFSHSPIHSPFISFPSSLPSLSLPESLCICLWIVLFLTFNFYTL | 56900
77 | KHMHLESKPPQLPPKCSSLRKPTNTLQGTNHAYHEHILNTDMDLKILEDLCNI | 64100
78 | LIVVFAQSKIDSDEASVPVDEELNGVSLLVRILSDSAGRIYMIVTLELLLKRN | 53600
79 | YGLIYSILLHLCAVFISSLRRLTVLRELLRMLFLFSCFWFAVSISYMSVLYTI | 49300
80 | SPTSAFGTASAPAATSAFGAPATGAAGGGGGGFSAFAGKPAAFGGAAPAPAPA | 46100
81 | KKASSSAVGEGKKKSASKPRTSSAGGASVDGQPKKPKQSKKKAASGSKGGAGS | 28500
82 | ALYFMVIFTSHIIYTFTLILGRPIVQVIPALYGLLSFLADSDLLFILPLCRMG | 55000
83 | LAPFLAWLLSLLLQFFVFFLCYNYCTCFFTCLFTCLFCPFRWLQLLLYSIITT | 44000
